Results from US20100285131A1.

Molecular target: β-Klotho overexpressed in recombinant human 293T kidney cells
Experiment: cell-based or functional assay

Row | Substance | EC50 (nM), ELK-luciferase [nM] | Efficacy, ELK-luciferase [%]
1 | hFc-(L15)-hFGF21(L98R, P171G, Y179G) (Fc fusion) | 61 | 82.6
2 | hFc-(L15)-hFGF21(L98R, P171G, Y179P) (Fc fusion) | 428 | 44.4
3 | hFc-(L15)-hFGF21(L98R, P171G, 1-179) (Fc fusion) | 7.8 | 77.4
4 | hFc-(L15)-hFGF21(L98R, P171G, GGGGG182-6) (Fc fusion) | 4310 | 99.7
5 | hFc-(L15)-hFGF21(L98R, P171G, S181A) (Fc fusion) | 2.66 | 73.5
6 | hFc-(L15)-hFGF21(L98R, P171G, S181K) (Fc fusion) | 130 | 87.9
7 | hFc-(L15)-hFGF21(L98R, P171G, S181P, P182) (Fc fusion) | 272 | 69.9
8 | hFc-(L15)-hFGF21(L98R, P171G, S181P) (Fc fusion) | 33.8 | 79.5
9 | hFc-(L15)-hFGF21(1-178, L98R, P171G) (Fc fusion) | 167 | 63.9
10 | hFc-(L15)-hFGF21(L98R, P171G, A180P) (Fc fusion) | 617 | 77.1
11 | hFc-(L15)-hFGF21(L98R, P171G, S181L) (Fc fusion) | 3.46 | 72.6
12 | hFc-(L15)-hFGF21(L98R, P171G, S181T) (Fc fusion) | 3.07 | 77.6
13 | hFc-(L15)-hFGF21(L98R, P171G, S181G) (Fc fusion) | 3.43 | 77.3
14 | MKEDD-hFGF21-(L15)-hFc (Fc fusion) | 834 | 83.1
